Measured values from patent US11066655B2, “RNA polymerase, methods of purification and methods of use” (President and Fellows of Harvard College, priority 2013, dated 2021).
“Also recorded” adds a separate entry of the source.

How the values were obtained:
E. coli BL21 (DE3) = assay: Growth curve of E. coli expressing Syn5 RNA polymerase from wild-type or modified vector; format: cell-based; settings: versus vector expressing wild-type Syn5 RNAP
Excerpt: FIG. 17 graphically depicts a growth curve of E. coli BL21 (DE3) expressing Syn5 RNA polymerase from wild-type (WT, Syn5 RNAP-pET24a) or modified (Syn5 RNAP-NP-pET24a) vector.
(§1) The wild-type Syn5 RNA polymerase gene was modified as follows to improve expression in E. coli cells. Nucleotides in Syn5 RNA polymerase gene (No. 808-825) CCA TTG GGC ACC CGT AAG (SEQ ID NO:78) encoding Pro Leu Gly Thr Arg Lys (SEQ ID NO:79) were mutated to CCT CTT GGT ACG CGC AAG (SEQ ID NO:80) without changing the amino acids encoded, and the Syn5 promoter A TTG GGC ACC CGT AA (SEQ ID NO:81) within this region was removed (FIG. 16). Thus, when expressed in E. coli, the enzyme produced by the modified gene would not start transcription from its own gene, enabling the cells to grow much faster (FIG. 17) and yield at least 5 times more enzyme than cells expressing wild-type Syn5 RNAP.
E. coli BL21(DE3) was transformed with plasmid Syn5 RNAP-NP-pET24 encoding an N-terminal His-tagged Syn5 RNA polymerase. Cells were grown at 37° C. until they reached an OD of 1.2, at which point the temperature was reduced to 25° C. and IPTG was added at final concentration of 0.5 mM. Cells were grown an additional 4 hours before collection. The purification procedure used is described in “Zhu B, Tabor S, Richardson CC. (2014) Syn5 RNA polymerase synthesizes precise run-off RNA products. […]

[1] = Activity of Syn5 RNAP-NP (gel); format: biochemical
Excerpt: FIG. 18 depicts gels showing expression and activity of Syn5 RNAP-NP.
as §1

[2] = tested on: template for a 2.7 knt RNA or human mitochondrial tRNA^ProUGG; assay: 2′-F-dNTP incorporation by Syn5 RNA polymerase Y564F; format: biochemical
Excerpt: FIGS. 28A, 28B, 28C and 28D depict gels showing a preference for 2′-F-dC/UTP over rC/UTP by Syn5 RNAP-Y564F.
Syn5 RNA polymerases containing Y564F and/or Y574F mutation were constructed using a known PCR mutagenesis method (see Higuchi et al., Nucleic Acids Res. 16:7351-7367 (1988) hereby incorporated by reference in its entirety), expressed and purified using known methods. The wild type gene background for the mutants was also modified, with the internal Syn5 promoter removed to reduce toxicity and increase the yield of the protein when expressed in E. coli. Purified proteins were analyzed by SDS-PAGE. The mutants were used to incorporate 2′-F-dNTPs as described below.
The reaction components were incubated at 37° C. for 4 hrs. 0.4 µl of the reaction mixture was loaded onto 2% agarose gel or 10% TBE gel and stained with ethidium bromide. Results are shown in FIG. 28A, FIG. 28B, FIG. 28C and FIG. 28D. The Y564F mutation does change the recognition of the 2′-group in the nucleotide substrates by Syn5 RNA polymerase. […] See FIG. 28A lane 4 vs 3; FIG. 28B lane 9-11 vs 6; FIG. 28C lane 11-13 vs 8).

| Molecule | toxicity to host cells (E. coli BL21 (DE3)) | enzymatic activity versus wild-type [1] | substrate preference 2′-F-dC/UTP versus rC/UTP ([2]; Mg buffer, 37° C.) | synthesis of long 2′-F RNA ([2]; low enzyme concentration) | transcript with all four 2′-F-dNMPs ([2]; template starting with C) | discrimination to 2′-F-dATP and 2′-F-dGTP ([2]; versus wild type) |
| --- | --- | --- | --- | --- | --- | --- |
| Syn5 RNAP-NP: Syn5 RNAP from modified gene (SEQ ID NO:83) with internal Syn5 promoter removed by silent mutations; same amino acids as wild-type (protein, Syn5 RNAP-NP, same amino acids as wild-type) MSFDLIARQLQRETEAAELARKRLQDARREANERSYASSNIESRKAIATFLDPIAQRIGERLFTLRRGTGAVDAAEVYKHLKNADHHHLALITMKTALDVLGKDPEPQIQQLTTAIGRNIQLELRLTYYAEENPELYKQASRFFHAGTGTRQKATVIKLKFNREGIEWDQWSRVTCHKVGQWLMLAMADVTGWIERATDRTSGGRKTKTRICYSREFLQHRDTILAAAEQLAFCQWPMLCPPIEWSNDHNGGYLSEQIRRVNPLIRKTGPLGTRKQGDIPLAMLNNLQGQAYKVNPEVLDIANHCYESNVTVGKFIRHAPLPVPPSPGEDCTEDQLTAYKRARREAEDFNAQISQKNWRTTEVMYVARKYADEASFWMPASFDYRGRVYFLNTALNPQGTDFDKALLYFAEEGPVNEWWLSFHVATTYGLDKETMVNRVQWARDNHELIDRIASDPVRHTEWHDADEPWCFLAACLEYKACVIDGTKQTSGLPIGIDATCSGLQHLAAMTRCGRTAALVNVTPTDKPADAYKTVAQASLKHLPKEQHEWITRKVTKRPVMCTPYGVTMSSARGYIRDQLVKDGHKEDLRSPGVLNGIVKAIFNEAIPEVIPGPVQVMAWLKRSAGQIIDRGDSTITWTTPSGFEVVQDLKKSKTYEVKTRIMGGARIKLQVGDGFTDEPDRDHHKSALAPNVVHSNDASLLHLTFAFWDKPFTVIHDCVLGRSCDMDQMGSDIRLHFAEMYKADVMQDWADQVGVELPVDLIKNTLDIDSVNQSLYFFS | less toxic to host cells | same enzymatic activity as the wild-type Syn5 RNAP; also recorded: comparable enzymatic activity |  |  |  |  |
| Syn5 RNA polymerase Y564F: Syn5 RNA polymerase Y564F mutant for the incorporation of 2′-F-dNTPs (protein, Amino acid sequence of a cyanophage Syn5 RNAP, Syn5 RNA polymerase Y564F mutant for the incorporation of 2′-F-dNTPs) MSFDLIARQLQRETEAAELARKRLQDARREANERSYASSNIESRKAIATFLDPIAQRIGERLFTLRRGTGAVDAAEVYKHLKNADHHHLALITMKTALDVLGKDPEPQIQQLTTAIGRNIQLELRLTYYAEENPELYKQASRFFHAGTGTRQKATVIKLKFNREGIEWDQWSRVTCHKVGQWLMLAMADVTGWIERATDRTSGGRKTKTRICYSREFLQHRDTILAAAEQLAFCQWPMLCPPIEWSNDHNGGYLSEQIRRVNPLIRKTGPLGTRKQGDIPLAMLNNLQGQAYKVNPEVLDIANHCYESNVTVGKFIRHAPLPVPPSPGEDCTEDQLTAYKRARREAEDFNAQISQKNWRTTEVMYVARKYADEASFWMPASFDYRGRVYFLNTALNPQGTDFDKALLYFAEEGPVNEWWLSFHVATTYGLDKETMVNRVQWARDNHELIDRIASDPVRHTEWHDADEPWCFLAACLEYKACVIDGTKQTSGLPIGIDATCSGLQHLAAMTRCGRTAALVNVTPTDKPADAYKTVAQASLKHLPKEQHEWITRKVTKRPVMCTPFGVTMSSARGYIRDQLVKDGHKEDLRSPGVLNGIVKAIFNEAIPEVIPGPVQVMAWLKRSAGQIIDRGDSTITWTTPSGFEVVQDLKKSKTYEVKTRIMGGARIKLQVGDGFTDEPDRDHHKSALAPNVVHSNDASLLHLTFAFWDKPFTVIHDCVLGRSCDMDQMGSDIRLHFAEMYKADVMQDWADQVGVELPVDLIKNTLDIDSVNQSLYFFS |  |  | prefers 2′-F-dCTP and 2′-F-dUTP to canonical rCTP and rUTP | stably synthesizes long RNA containing 2′-F-dCMP and 2′-F-dUMP | Full-length transcript including all four 2′-F-dNMPs was synthesized | reduced |
